According to paper PMC4737671 (International Journal of Biological Sciences, 2016):

B1: BRCA1 fragment 421-988aa (domain or fragment, human, UniProt P38398 421-988, looked up)
chain: EYSGSSEKIDLLASDPHEALICKSERVHSKSVESNIEDKIFGKTYRKKASLPNLSHVTENLIIGAFVTEPQIIQERPLTNKLKRKRRPTSGLHPEDFIKKADLAVQKTPEMINQGTNQTEQNGQVMNITNSGHENKTKGDSIQNEKNPNPIESLEKESAFKTKAEPISSSISNMELELNIHNSKAPKKNRLRRKSSTRHIHALELVVSRNLSPPNCTELQIDSCSSSEEIKKKKYNQMPVRHSRNLQLMEGKEPATGAKKSNKPNEQTSKRHDSDTFPELKLTNAPGSFTKCSNTSELKEFVNPSLPREEKEEKLETVKVSNNAEDPKDLMLSGERVLQTERSVESSSISLVPGTDYGTQESISLLEVSTLGKAKTEPNKCVSQCAAFENPKGLIHGCSKDNRNDTEGFKYPLGHEVNHSRETSIEMEESELDAQYLQNTFKVSKRQSFAPFSNPGNAEEECATFSAHSGSLKKQSPKVTFECEQKEENQGKNESNIKPVQTVNITAGFPVVGQKDKPVDNAKCSIKGGSRFCLSSQFRGNETGLITPNKHGLLQNPYRIPPLFPIKS
B2: BRCA1 281-701aa (domain or fragment, human, UniProt P38398 281-701, looked up)
chain: SSLQHENSSLLLTKDRMNVEKAEFCNKSKQPGLARSQHNRWAGSKETCNDRRTPSTEKKVDLNADPLCERKEWNKQKLPCSENPRDTEDVPWITLNSSIQKVNEWFSRSDELLGSDDSHDGESESNAKVADVLDVLNEVDEYSGSSEKIDLLASDPHEALICKSERVHSKSVESNIEDKIFGKTYRKKASLPNLSHVTENLIIGAFVTEPQIIQERPLTNKLKRKRRPTSGLHPEDFIKKADLAVQKTPEMINQGTNQTEQNGQVMNITNSGHENKTKGDSIQNEKNPNPIESLEKESAFKTKAEPISSSISNMELELNIHNSKAPKKNRLRRKSSTRHIHALELVVSRNLSPPNCTELQIDSCSSSEEIKKKKYNQMPVRHSRNLQLMEGKEPATGAKKSNKPNEQTSKRHDSDTFPELK

Target: the molecule itself
Assay: atomic force microscopy

Row | Protein | stoichiometry N | binding result
1 | B1 | 2 | 
2 | B2 |  | binds
